{"source": "patent US20030171565", "tested_on": "protein zero related (PZR), tyrosine-phosphorylated", "sequence (chain, as listed by the source)": "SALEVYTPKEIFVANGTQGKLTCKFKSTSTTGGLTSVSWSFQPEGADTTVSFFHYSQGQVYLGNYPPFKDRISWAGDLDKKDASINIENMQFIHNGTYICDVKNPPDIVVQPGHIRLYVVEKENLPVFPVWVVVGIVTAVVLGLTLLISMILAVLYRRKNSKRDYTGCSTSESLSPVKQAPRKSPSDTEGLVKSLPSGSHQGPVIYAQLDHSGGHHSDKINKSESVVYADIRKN"}
{"substance": "tyrosine phosphatase SHP-1", "values": [{"measurement": "dephosphorylation of purified p43 in vitro (anti-phosphotyrosine Western blot)", "value": "SHP-1 only produced a partial dephosphorylation"}]}
